Usually Kd stands for the constant that tells how readily two partners part at equilibrium. A lower Kd goes with higher affinity.

The record followed here is paper doi:10.1101/2020.02.29.971473.

The experiment deals with human PCNA, purified (immobilised on the GLC chip) (human), P12004. The experiment can be described thus: SPR. As to conditions: remark: other sources report otherwise.
Chain of human PCNA, purified (immobilised on the GLC chip) (human), P12004 (P12004 whole entry): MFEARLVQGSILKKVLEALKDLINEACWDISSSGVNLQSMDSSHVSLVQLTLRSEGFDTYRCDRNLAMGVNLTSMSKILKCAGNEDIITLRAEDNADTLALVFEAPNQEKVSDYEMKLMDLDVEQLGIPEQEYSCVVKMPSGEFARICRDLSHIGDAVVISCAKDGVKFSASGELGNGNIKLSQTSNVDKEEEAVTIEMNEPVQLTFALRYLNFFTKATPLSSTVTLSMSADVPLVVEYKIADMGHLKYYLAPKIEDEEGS

B1: p125 (PolD1), catalytic subunit of human DNA polymerase delta, purified, P28340 1-1107 (natural protein)
chain: MDGKRRPGPGPGVPPKRARGGLWDDDDAPRPSQFEEDLALMEEMEAEHRLQEQEEEELQSVLEGVADGQVPPSAIDPRWLRPTPPALDPQTEPLIFQQLEIDHYVGPAQPVPGGPPPSRGSVPVLRAFGVTDEGFSVCCHIHGFAPYFYTPAPPGFGPEHMGDLQRELNLAISRDSRGGRELTGPAVLAVELCSRESMFGYHGHGPSPFLRITVALPRLVAPARRLLEQGIRVAGLGTPSFAPYEANVDFEIRFMVDTDIVGCNWLELPAGKYALRLKEKATQCQLEADVLWSDVVSHPPEGPWQRIAPLRVLSFDIECAGRKGIFPEPERDPVIQICSLGLRWGEPEPFLRLALTLRPCAPILGAKVQSYEKEEDLLQAWSTFIRIMDPDVITGYNIQNFDLPYLISRAQTLKVQTFPFLGRVAGLCSNIRDSSFQSKQTGRRDTKVVSMVGRVQMDMLQVLLREYKLRSYTLNAVSFHFLGEQKEDVQHSIITDLQNGNDQTRRRLAVYCLKDAYLPLRLLERLMVLVNAVEMARVTGVPLSYLLSRGQQVKVVSQLLRQAMHEGLLMPVVKSEGGEDYTGATVIEPLKGYYDVPIATLDFSSLYPSIMMAHNLCYTTLLRPGTAQKLGLTEDQFIRTPTGDEFVKTSVRKGLLPQILENLLSARKRAKAELAKETDPLRRQVLDGRQLALKVSANSVYGFTGAQVGKLPCLEISQSVTGFGRQMIEKTKQLVESKYTVENGYSTSAKVVYGDTDSVMCRFGVSSVAEAMALGREAADWVSGHFPSPIRLEFEKVYFPYLLISKKRYAGLLFSSRPDAHDRMDCKGLEAVRRDNCPLVANLVTASLRRLLIDRDPEGAVAHAQDVISDLLCNRIDISQLVITKELTRAASDYAGKQAHVELAERMRKRDPGSAPSLGDRVPYVIISAAKGVAAYMKSEDPLFVLEHSLPIDTQYYLEQQLAKPLLRIFEPILGEGRAEAVLLRGDHTRCKTVLTGKVGGLLAFAKRRNCCIGCRTVLSHQGAVCEFCQPRESELYQKEVSHLNALEERFSRLWTQCQRCQGSLHEDVICTSRDCPIFYMRKKVRKDLEDQEQLLRRFGPPGPEAW
B1: the Kd is 100 nM and the response units amounted to 90 RU.
